This assay concerns the target potato ADP-glucose pyrophosphorylase (AGPase) small subunit, wild type (potato (S. tuberosum)) (UniProt P23509). The assay can be described thus: native gel or EMSA.

Sequence of potato ADP-glucose pyrophosphorylase (AGPase) small subunit, wild type (potato (S. tuberosum)) (P23509 73-521): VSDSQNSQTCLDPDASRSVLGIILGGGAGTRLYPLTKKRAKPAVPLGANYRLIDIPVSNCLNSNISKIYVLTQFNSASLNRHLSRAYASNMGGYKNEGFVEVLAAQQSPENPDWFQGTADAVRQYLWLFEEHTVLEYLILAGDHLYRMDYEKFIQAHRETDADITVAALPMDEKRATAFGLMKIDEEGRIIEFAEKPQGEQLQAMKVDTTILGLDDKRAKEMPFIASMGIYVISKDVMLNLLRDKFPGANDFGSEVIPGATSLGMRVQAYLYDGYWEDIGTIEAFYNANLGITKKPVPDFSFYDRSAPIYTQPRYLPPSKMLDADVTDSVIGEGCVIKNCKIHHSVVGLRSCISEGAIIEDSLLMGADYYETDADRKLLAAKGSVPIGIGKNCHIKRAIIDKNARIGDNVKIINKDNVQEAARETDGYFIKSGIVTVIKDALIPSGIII

“potato ADP-glucose pyrophosphorylase (AGPase) large subunit, E370G mutant (enzyme)” came in with a percent in the form of heterotetramers of 90%.
With “potato ADP-glucose pyrophosphorylase (AGPase) large subunit, E370R mutant (enzyme)”, the percent of total band intensity in the dimer band worked out at 40%.

(Values after article doi:10.1101/054106.)
